Data set [1] has as its target Chaetomium thermophilum p44 (residues 1-285) (Chaetomium thermophilum).
The test system of data set [2] is ctXPD Y156A (Chaetomium thermophilum). As to the kind of experiment: BLI. Particulars: 3'-biotin; BLI (Octet RED): 20 mM Tris-HCl pH 8.0, 150 mM NaCl, 10 mM MgCl2, 1 mM DTT, 1 mg/ml BSA; 0.5-5 uM ctXPD; temperature not stated. (Biolayer interferometry detects binding as a change in optical thickness at a sensor tip.)
For data set [3], the system named is ctXPD K719W (Chaetomium thermophilum). As to the kind of experiment: BLI. Particulars: 3'-biotin; BLI (Octet RED): 20 mM Tris-HCl pH 8.0, 150 mM NaCl, 10 mM MgCl2, 1 mM DTT, 1 mg/ml BSA; 0.5-5 uM ctXPD; temperature not stated.
In data set [4] the test system is ctXPD wild type;ctp44 (1-285) (Chaetomium thermophilum;Chaetomium thermophilum). In words: BLI. Particulars: 3'-biotin; BLI (Octet RED): 20 mM Tris-HCl pH 8.0, 150 mM NaCl, 10 mM MgCl2, 1 mM DTT, 1 mg/ml BSA; 0.5-5 uM ctXPD; temperature not stated.
For data set [5], the system named is ctXPD F192A (Chaetomium thermophilum). As to the kind of experiment: BLI. The note with it: 3'-biotin; BLI (Octet RED): 20 mM Tris-HCl pH 8.0, 150 mM NaCl, 10 mM MgCl2, 1 mM DTT, 1 mg/ml BSA; 0.5-5 uM ctXPD; temperature not stated.
The subject of data set [6] is ctXPD K48R (Chaetomium thermophilum). In words: BLI. The note with it: 3'-biotin; BLI (Octet RED): 20 mM Tris-HCl pH 8.0, 150 mM NaCl, 10 mM MgCl2, 1 mM DTT, 1 mg/ml BSA; 0.5-5 uM ctXPD; temperature not stated.
The test system of data set [7] is ctXPD R195A (Chaetomium thermophilum). In words: BLI. Particulars: 3'-biotin; BLI (Octet RED): 20 mM Tris-HCl pH 8.0, 150 mM NaCl, 10 mM MgCl2, 1 mM DTT, 1 mg/ml BSA; 0.5-5 uM ctXPD; temperature not stated.
In data set [8] the test system is ctXPD R195E (Chaetomium thermophilum). As to the kind of experiment: BLI. The note with it: 3'-biotin; BLI (Octet RED): 20 mM Tris-HCl pH 8.0, 150 mM NaCl, 10 mM MgCl2, 1 mM DTT, 1 mg/ml BSA; 0.5-5 uM ctXPD; temperature not stated.
Data set [9] concerns ctXPD wild type (Chaetomium thermophilum). As to the kind of experiment: BLI. The note with it: 3'-biotin; BLI (Octet RED): 20 mM Tris-HCl pH 8.0, 150 mM NaCl, 10 mM MgCl2, 1 mM DTT, 1 mg/ml BSA; 0.5-5 uM ctXPD; temperature not stated.

Consider three substances from PMC4182028.

In data set [1], “Chaetomium thermophilum XPD K719W (enzyme)” displayed a fluorescence-based helicase activity of ctXPD K719W with ctp44 (1-285) added (Rel. Fluorescence Change·s^−1) of 4.8 and a ssDNA-dependent ATPase activity of ctXPD K719W with ctp44 (1-285) added (mol ATP·s^−1 ·mol^−1 XPD) of 0.12.

With “Chaetomium thermophilum XPD wild type (enzyme)”, the ssDNA-dependent ATPase activity of ctXPD with ctp44 (1-285) added (0.12 without ctp44) (mol ATP·s^−1 ·mol^−1 XPD) in data set [1] was 0.7.

As for “GACTACGTACTGTTACGGCTCCATCTCTACCGCAATCAGGCCAGATCTGC [50-nt ssDNA (BLI)]”, the Kd was found to be 561 nM in data set [2]; 192 nM in [3]; 93 nM in [4]; 668 nM in data set [5]; 159 nM in data set [6]; 1040 nM in [7]. In addition, the values for the Kd in data set [8] and in [9] were 916 nM and 118 nM, respectively.

One may read the Kd as the free concentration of one partner at which half of the binding sites on the other are occupied at equilibrium, for simple one-to-one binding.
